According to the nanobody polyreactivity screen of Harvey et al. (2022):

Assay: yeast display, Sf9 membrane polyspecificity reagent, FACS + sequencing; frameworks hold sequencing errors
Procedure, shortened: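 Using colony PCR, genes from sorted yeast display clones were amplified, then sequenced on MiSeq at 2 × 250 and filtered by CDR length. The clones had been stained with 10% biotinylated, detergent-solubilized Sf9 membrane reagent for 1 hour at 4 °C and sorted by FACS into low and high (top ~1%) gates on anti-HA and streptavidin fluorescence. Polyreactivity labels come from the gate of origin.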

Sequence	polyreactivity (PSR sort gate)
QVHLVESGGGLVQAGGSLRLSCAASGSIFYDYAMVWYIQAPGKERELVAAINSGDSTYYADSVKGRFTISRDNAKNTVYLQMNSLKPEDTAVYFCAATYFSPYIEYDYWGQGTQVTVSS	low polyreactivity
QVQLVESRGGLVQAGGSLGLSCAASGRIFSGYAMGWYRKAPGKERELVAAISGSGGTTYYADSVKGRFTISRDNAKNTVYLQINSLKPEDTAVYYCAVVIGVGYGYYYWGQGTQVTVSS	low polyreactivity
QVQLVESGGGLVQAGGSLRLSCSASGRILYSYSMGWYRQAPGKEREFVAAIRRSGGSTYYADSVKGRFTISRDNAKNTVYLQMNSLKPEDTAVYYCAAGRRYSGSYDYWGQGTQVTVSS	high polyreactivity
QVQLVESGGGLVLAGGSLRLSCAASGFILLYYAMGWYREATGKERELVAAISWTGGRTYYADSVKGRFTISRDNAKNTVYLQMNRLKPEDTAVYYCNTFKFFCRKYGYWGQGTQVTVSS	low polyreactivity
QEQLQESGGGLVQAGGSLRLSCAASGYISQSSVMGWYRQAPGKEREFVASISYGATTYYADSVKGRFTISRDNAKNTVYLQTNSRKPEDTAVYYCAVWVKRGFSHRYWGQGTQVTVSS	high polyreactivity
QVQLVESGGGLVQAGGSLRLSCAASGSIFDWYAMGWYRKAPGTERELVAAINEGGGSTYYADSVKGRFTISRDNAKNTVYLQMNSLKPEDTAVYYCAAGDYYLQDNYWGQGTQVTVSS	low polyreactivity
QVQLVESGGGLDQAGGSLRLSCAASGFTFASYAMGWYRQAPGKERELLAAITRSGGSTYYADSVKGRFTISRDNAKNTVYLHLTSLKPEDTAVYYCATDDEQHYYLLEYYYWGQGTQVTVSS	low polyreactivity
QVQLVESGRGLVQAGGSLRLRCAASGFTIYPYVMGWYRQAPGKERELVAAISWSGGRTSYADSVKGRFTISRDNAKNTVYLQMNSLKPEDTAVYYCATRPSHVLSEMDYWGQGTQVTVSS	low polyreactivity
QLQLVESGGGFVQAGGSLRLSCDASGSTFGNYTMGWYRQAPGKERELVAAISFSGGRTYYADSVKGRFTISRDNAKNTVYLQMNSLKPADTAVYYCAKRSYGYSAFIYNYWGQGTQVTVSS	high polyreactivity
QVQLVESGGGLVQAGGSLRLSCAASGFIFYVKAMGWYRKAPGKERELVASITNGGSTTYADSVKGRFTISRDNAKNTDDLQMNSLKPEDTAVYYCHASGLDFSYFDEFNYWGQGTQVTVSS	low polyreactivity
QVQLVESGGGLVQAGGSLRLSCAASGFIFTRNAMGWYRQAPGKERELVAAISASGGRTYYADSVKGRFTISRDNAKNTVYLQMNSLKPEDTAVYYCNTGIYVARSTYGRFKYDYWGQGTQVTVSS	high polyreactivity
QVQLVESGGGLVQAGGSLRLSCAASGGTFTGYAMGWYRQAPGKERELVAAISYSGTRTYYADSVKGRFTISRDNAKNTVYLQMNSLKPEDTAVYYCNALYAIWHDYWGQGTQVTVSS	high polyreactivity
QVQLVESGGGLVQAGGSLRLSCAASGLTFGDYTMGWYRQAPGKERELVAAITWSGASTYYADSVKGRFTISRDNAKNTVYLQMHSLKPEDTAVYYCAAERTPSYRAYDYWGQGTKVTVSS	low polyreactivity
QVQLVESGGGLLQAGGSLRLSCASSGLIFLGYTMGRYIQAPGKERELVAAISRRGGRTYYADSVKGLFTISRDNAKNTVYLLMNSLKPEDTAVYYCNADITSSGPKSDYWGQGTQVTVSS	high polyreactivity
QVQLVESGGGLVQAGGSLRLSCAASGSIYWINTSMGWYIQAPGKERELVAAITWSSGGTYYADSVKGRFTISRDNAKKTVYLQMNSLKPEDTAVYYCAKVRFFWYRMGYWGQGTQVTVSS	high polyreactivity
QVQLVESGGGLVQAGGSLRLSCAASGSIFRFYAMGWYRQAPGKERELVADISWRGGSTYYADSVTGRFTISRDNAKNTVYLQMNSLKPEDTAVYYCAADGPGKYDYWGQGTQVTVSS	high polyreactivity
QVQLVESGGGLVQAGGSLRLSCAASGFIFAYYAMGWYRQAAGKERELVAAITSDGSTYYADSVKGRFTISRDNAKNTVYLQMNSLKPEDTAVYYCNTYWVLRPGYNYWGQGTQVTVSS	high polyreactivity
QVQLVESGGGLVQAGGILRLSFAASGRIFTHYAMAGYRPAPGKERELVAAIRYSGGRTYYADSVKGRFTLSRDNAKNTVYLQMNSRKPEDTAVYYCAAEGFGGSFRSFYTIYDYWGQGTLVTVSS	high polyreactivity
QVQLVESGGGLVQAGGSLRLSCAASGIIFVQYAMGWYRQAPGKERELVAGITRRGGSTYYADSVKGRFTISRDNAKNTVYLQMNSLKTEDTAVFYCAATRPGDVLYRNEYWGQGTQVTVSS	high polyreactivity
QVQLVESVGVLVQAGGSLRLSCAASGLIIDGYAMGWYRQAPGKERELVATITVSGTSTYYADSVKGRFTISRDNEKNTVYLQMNSLIPEDTAVYYCATDRNYGYYFVEYDHDYWGQGTQVTVSS	low polyreactivity
QVQLVESGGGLVQAGGSLRLSCAASGRTFFYYAMGWYRQSPGKERELVATITGIGGSTYADSVKGRFTISRDNAKNTVYLQMNSLKPEDTAVYYCNAERGVYWGRYPYKYDYWGQGTQVTVSS	low polyreactivity
QVQLVESGGGLVQAGGSLRLSCAASGSTFDRYGMGWYRQAPGKERELVARITSSGASTYYADSVKGRFTISRDNAMNTVYLQMNSQKPEDTAVYYCAADEGYPGDGDYWGQGTQVTVSS	low polyreactivity

Sequence	polyreactivity (PSR sort gate)
QVQLVESGGGLFQAGGSLRLSCAASGSIFTRYAMGWYRQAPGKERELVAAISNRGGRTYYADSVKGRFTISRDNAKNTVYLQMNILKPEDTAVYYCNAATTRRIPQSDNYWGQGTQVTVSS	high polyreactivity
QVQLVESGGGLVQAGGSLRLSCAASGRTFNPYVMGWYRQAPGKERELVARIRGSGTSTYYADSVKGRFTISRDNAKNTVYLQMNSLKPEDTAVYYCAAAQSKYSFYWGDYYYWGQGTQVTVSS	high polyreactivity
QVHLVESGGGLVQAGGSLRLSCAASGRTFYGNAMGWYRQATGKERELVAAINRDGGTYYADSVKGRFTISRDNAKNTVYLQMNSLKTEDTAVYYCNAVKRGIRYGYWGQGTQVTVSS	high polyreactivity
QVQLVESGGGLVQAGGSLRLSCAASGGIFRYYAMGWYRQAPAKERELVAAISSGGRTYYADSVKGRFTISRDNAKTTVYLQMNSLKPEDTAVYYCNADRYWGYDYWGQGTQVTVSS	high polyreactivity
QVQLVESGGGLVQAGGSLRLSCAASGSTFYYYAMGWYRQAPGKERELVAAISNRDGRTYYADSVKGRFTISRDNAKNTVYLQMNSLKPEDTAVYYCNAYSYGHYYWGQGTQVTVSS	high polyreactivity
QVQLVESGGGLVQAGGSLRLSCAASGSTFYKYAMGWYRQAPGKERELVATINISGGSTSYADSVKGRFTISRDYAKNTVYLQMNSLKPEDTAVYYCAASLTRHGYYRRFDYWGQGTQVTVSS	high polyreactivity
QVQLVETGGGLVQAGGSHRLSCAASGFTFWYNAMGWYRPAPGKERELVAAIDWRGSSTYYADSVNGRFTISRDNAKNTVYLQMNSLKPEDTAVYYCAADFGDRYVYWAQGTQVTVSS	high polyreactivity
QVQLVESGGGLVQAGGSLRLSCAASGSTFKINALGWYIQAPGKERELVALIRASGASTYYADSVKGRFTISRDNAKKTVYLRMNILKPEDTAVYYCAATTRGYKWVGRDYDYWGQGTQVTVSS	high polyreactivity
QVQLVESGGGLVQAGGSLRLSCAASGSIFRFYAMGWYRQATGKEREFVASITGTGGSTYYADSVKGRFTISRDNAKNTVYLQMNSLKPEDTAVYYCNARPYGWYDTYRLYGYWGQGTQVTVSS	high polyreactivity
QVQLVESGGGLVQAGGSLRLSCAASGFIFLGYAMGWYRQAPGKEREFVAGITITGGSTYYADSVKGRFTISRDNAKNTVYLQMNSLKPEDTAVYYCNAESNLYRRRRNYWGQGTQVTVSS	low polyreactivity
QVQLVESGGGLVQAGGSLRLSCAASGSIFTRNALGWYRQAPGKETEFVAAISSSGVSTYYADSVKGRFTISRDNAKNTVYLQMNSLKPEDTAVYDCAARWGTKSGRFEYWGQGTQVTVSW	high polyreactivity
QVQLGESGGGLVQAGGSLRLSCAASGSTFAYNERGWYSQAPGHERELVADIRSGGNTNYADSVKGRFTISRDNAKNTVYLQMPSLKPEDTAVYYCATDGYRIDVYHPDYRYDYWGQGTQVTVSS	low polyreactivity
QVHLVESGGGLVQAGGSLRLSCAASGYVMGWYRQAPGKERELVAAITRGTSTYYADSVKGRFTISRDNAKNTVYLQMNSLKPEDTAVYYCAARTTSGEWPPGNIGTYLYDYWGQGTQVTVSS	low polyreactivity
QVHLVESGGGLVQAGGSLRLSCAASGSTFGYYAMGWYRQAPGKERELVAAIRYSGGTTYYADSVKGRFTISRDNAKNTVYLQMNSLKPEDTAVYYCAAVYTSGYYYWGQGTQVTVSS	high polyreactivity
QVQRLESRGGLVQAGGSLRLSCAASGSTFDYNAMGWYRQAPGKERELVAAITSSGGSTYYADSVKGRFTISRDNAKNNVYLQMHSLKPEDTAVYYCNADGYVPDYEYWGQGTQVTVSS	high polyreactivity
QVQLVESGGGLVQAGGSLRLSCAASGRTFRCYAMGWDRQAPGKERELVAAITYSVGSTYYADSVKGRLTISRDTAKNTVYLQMNSLKPEDTAVYYCAADSYPYRYRGKYSRLDYCGQGTQVTVSS	low polyreactivity
QVQLVESGGGLVQAGGSLRLICAASGRIFWYYAMGWYRQAPGKERELVASITSGGRTKYADSVKGRFTISRDNAKNTVYLQMNSLKPEDTAVYYCAARLLIDYHADWWVAYDYWGQGTQVTVSS	low polyreactivity
QVQLVESGGGLVQAGGSLRLSCAASGSIMNNYAMGWYRQAPGKERELVAAISSSGGTNYADSVKGRFTISRDNAKNTVYLLMNSLKPEDTAVYYCNADVMDGGYDYWGQGTQVTVSS	low polyreactivity
QVQLVESGGGLVQAGGSLRLSCAASGNTFYPHAMGWYRQAPGTERELVAAISSTGGRTYYADSVKGRFTISRDNAKNTVYLQMNSLKPEDTAVYFCNTYACVAGDYWGQGTQVTVSS	high polyreactivity
QVQLVESGGGLVQAGGSLRLSCAASGYTFGSYAMGWYRPAPGKERELVAAITPGGSTYYADSVKGRFTISRDNAKNTVYLQMNSLKPEDTAVYYCNRATRYWKAYYWFKTMDYWGQGTQVTVSS	high polyreactivity
QVQLVESGACLVQAGGSLRLSFAASGSIFGWYTMGWYRPAPGKERELVAAISNSGTSSYYADSEKGRFTISRDTAKNTVYLQMNSLKPEDTAVYYCNAYSDLFGSYTDLGEYDYWVQGTQVTVSS	low polyreactivity
